system: Escherichia coli TOP10; test: shrunken log2 fold change of peptide-encoding DNA abundance (4.5 h post-induction vs induction); higher = less antimicrobial activity (less host growth inhibition); conditions: time post-induction: 4.5 h; library: site-saturation at positions 5, 18, 19, 20
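Also: peptides expressed intracellularly from a pBAD plasmid library in pooled LB shake-flask culture, induced with 0.3% L-arabinose, DNA abundance read by NGS, three biological replicates, DESeq2 with apeglm shrinkage.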

Sequence | shrunken log2 fold change
RRIRVRPPRLPRPRPRPAYDPRP | -0.565
RRIRTRPPRLPRPRPRPVQMPRP | 0.000776
RRIRVRPPRLPRPRPRPSMTPRP | -0.175
RRIRTRPPRLPRPRPRPNIKPRP | -0.828
RRIRCRPPRLPRPRPRPQQFPRP | -0.217
RRIRNRPPRLPRPRPRPVVKPRP | 0.0106
RRIRNRPPRLPRPRPRPYIVPRP | -0.314
RRIRKRPPRLPRPRPRPRMKPRP | 0.346
RRIRQRPPRLPRPRPRPKEFPRP | 0.0639
RRIRDRPPRLPRPRPRPFFDPRP | 0.266
RRIRIRPPRLPRPRPRPGSMPRP | -0.501
RRIRPRPPRLPRPRPRPDDHPRP | -0.0314
RRIRVRPPRLPRPRPRPSMNPRP | 0.331
RRIRARPPRLPRPRPRPVCTPRP | 0.434
RRIRWRPPRLPRPRPRPLIEPRP | 0.00804
RRIRERPPRLPRPRPRPVENPRP | -0.0218
RRIRIRPPRLPRPRPRPFDIPRP | -1.02
RRIRVRPPRLPRPRPRPIAVPRP | 0.0926
RRIRSRPPRLPRPRPRPNVWPRP | 0.109
RRIRSRPPRLPRPRPRPIIEPRP | -0.114
RRIRIRPPRLPRPRPRPTIKPRP | -0.611
RRIRHRPPRLPRPRPRPLWTPRP | -0.174

Sequence | shrunken log2 fold change
RRIRWRPPRLPRPRPRPWDSPRP | -0.287
RRIRWRPPRLPRPRPRPVIRPRP | 0.0511
RRIRFRPPRLPRPRPRPRVWPRP | 0.963
RRIRCRPPRLPRPRPRPYWNPRP | -0.629
RRIRWRPPRLPRPRPRPPMMPRP | 0.203
RRIRLRPPRLPRPRPRPITSPRP | 0.0662
RRIRARPPRLPRPRPRPNTWPRP | 0.0711
RRIRYRPPRLPRPRPRPIGLPRP | -0.0167
RRIRARPPRLPRPRPRPPKQPRP | 0.0504
RRIRYRPPRLPRPRPRPDFSPRP | 0.0939
RRIRVRPPRLPRPRPRPGNCPRP | 0.0986
RRIRQRPPRLPRPRPRPFKMPRP | -0.217
RRIRCRPPRLPRPRPRPAEGPRP | 0.14
RRIRKRPPRLPRPRPRPDQNPRP | 0.678
RRIRIRPPRLPRPRPRPDDNPRP | -0.27
RRIRWRPPRLPRPRPRPYPSPRP | -0.0856
RRIRCRPPRLPRPRPRPSQVPRP | -0.156
RRIRHRPPRLPRPRPRPLHVPRP | 0.146
RRIRHRPPRLPRPRPRPQGHPRP | -0.268
RRIRLRPPRLPRPRPRPEKLPRP | -0.00411
RRIRVRPPRLPRPRPRPGTWPRP | -0.0352
RRIRTRPPRLPRPRPRPHDPPRP | -0.283

Sequence | shrunken log2 fold change
RRIRRRPPRLPRPRPRPDPAPRP | 1.18
RRIRYRPPRLPRPRPRPWIVPRP | -0.219
RRIRFRPPRLPRPRPRPHAFPRP | -0.411
RRIRVRPPRLPRPRPRPTLNPRP | -0.102
RRIRCRPPRLPRPRPRPNLHPRP | -0.619
RRIRHRPPRLPRPRPRPDVQPRP | 0.0591
RRIRVRPPRLPRPRPRPDGKPRP | -0.0236
RRIRFRPPRLPRPRPRPGAAPRP | 0.517
RRIRWRPPRLPRPRPRPRTRPRP | 0.755
RRIRFRPPRLPRPRPRPWCTPRP | -0.288
RRIRMRPPRLPRPRPRPFQVPRP | 0.0921
RRIRWRPPRLPRPRPRPRCMPRP | 0.204
RRIRSRPPRLPRPRPRPCTFPRP | -0.401
RRIRCRPPRLPRPRPRPGAEPRP | 0.239
RRIRFRPPRLPRPRPRPHMYPRP | -1.28
RRIRFRPPRLPRPRPRPCLCPRP | -0.0404
RRIRTRPPRLPRPRPRPHSRPRP | 0.0646
RRIRNRPPRLPRPRPRPTPRPRP | 0.677
RRIRHRPPRLPRPRPRPICIPRP | -0.577
RRIRPRPPRLPRPRPRPYYVPRP | -1.25
RRIRFRPPRLPRPRPRPLHRPRP | 0.136
RRIRWRPPRLPRPRPRPERVPRP | 0.447

Sequence | shrunken log2 fold change
RRIRVRPPRLPRPRPRPFLGPRP | -0.0486
RRIRPRPPRLPRPRPRPTVSPRP | 0.433
RRIRVRPPRLPRPRPRPSGKPRP | 0.0575
RRIRFRPPRLPRPRPRPIHVPRP | -0.335
RRIRLRPPRLPRPRPRPWYTPRP | -0.57
RRIRWRPPRLPRPRPRPNPTPRP | -0.0571
RRIRCRPPRLPRPRPRPAQMPRP | 0.224
RRIRMRPPRLPRPRPRPVVIPRP | -0.174
RRIRGRPPRLPRPRPRPAVYPRP | 0.742
RRIRRRPPRLPRPRPRPWAHPRP | 0.0718
RRIRMRPPRLPRPRPRPGGDPRP | 1.58
RRIRHRPPRLPRPRPRPGEYPRP | -0.219
RRIRERPPRLPRPRPRPIDCPRP | -0.409
RRIRHRPPRLPRPRPRPWVRPRP | 0.0215
RRIRHRPPRLPRPRPRPLDHPRP | -0.34
RRIRIRPPRLPRPRPRPICMPRP | -0.407
RRIRWRPPRLPRPRPRPKWEPRP | 0.0855
RRIRTRPPRLPRPRPRPMTGPRP | 0.17
RRIRNRPPRLPRPRPRPMHQPRP | -0.19
RRIRVRPPRLPRPRPRPQNGPRP | -0.356
RRIRWRPPRLPRPRPRPFYGPRP | -0.0562
RRIRIRPPRLPRPRPRPNWWPRP | 0.159

Sequence | shrunken log2 fold change
RRIRTRPPRLPRPRPRPVLEPRP | 0.179
RRIRQRPPRLPRPRPRPHRQPRP | 0.00471
RRIRERPPRLPRPRPRPEGCPRP | -0.318
RRIRFRPPRLPRPRPRPQQDPRP | -0.24
RRIRNRPPRLPRPRPRPLGLPRP | -0.0325
RRIRNRPPRLPRPRPRPSFKPRP | -0.25
RRIRQRPPRLPRPRPRPRAEPRP | 0.292
RRIRFRPPRLPRPRPRPGLLPRP | 0.032
RRIRGRPPRLPRPRPRPWYDPRP | -0.929
RRIRQRPPRLPRPRPRPIIWPRP | 0.0173
RRIRARPPRLPRPRPRPMRNPRP | 0.756
RRIRVRPPRLPRPRPRPTGNPRP | 2.77
RRIRPRPPRLPRPRPRPQNRPRP | -0.598
RRIRDRPPRLPRPRPRPMCAPRP | 0.0829
RRIRSRPPRLPRPRPRPLHNPRP | -0.198
RRIRHRPPRLPRPRPRPLSGPRP | -0.35
RRIRIRPPRLPRPRPRPQVAPRP | -0.333
RRIRLRPPRLPRPRPRPNDQPRP | -0.19
RRIRARPPRLPRPRPRPIMWPRP | 0.217
RRIRHRPPRLPRPRPRPINFPRP | -0.368
RRIRCRPPRLPRPRPRPCAQPRP | 0.101

— the supplement of paper PMC9112550, “Optimization of the antimicrobial peptide Bac7 by deep mutational scanning” (BMC Biology, 2022)
